This data set concerns the molecule itself. Nature of the data set: FRET or BRET. For orientation: In BRET a luciferase serves as donor, and the signal depends on an acceptor being close.

B1: FokI restriction endonuclease (enzyme, UniProt P14870 1-579, looked up)
chain: MVSKIRTFGWVQNPGKFENLKRVVQVFDRNSKVHNEVKNIKIPTLVKESKIQKELVAIMNQHDLIYTYKELVGTGTSIRSEAPCDAIIQATIADQGNKKGYIDNWSSDGFLRWAHALGFIEYINKSDSFVITDVGLAYSKSADGSAIEKEILIEAISSYPPAIRILTLLEDGQHLTKFDLGKNLGFSGESGFTSLPEGILLDTLANAMPKDKGEIRNNWEGSSDKYARMIGGWLDKLGLVKQGKKEFIIPTLGKPDNKEFISHAFKITGEGLKVLRRAKGSTKFTRVPKRVYWEMLATNLTDKEYVRTRRALILEILIKAGSLKIEQIQDNLKKLGFDEVIETIENDIKGLINTGIFIEIKGRFYQLKDHILQFVIPNRGVTKQLVKSELEEKKSELRHKLKYVPHEYIELIEIARNSTQDRILEMKVMEFFMKVYGYRGKHLGGSRKPDGAIYTVGSPIDYGVIVDTKAYSGGYNLPIGQADEMQRYVEENQTRNKHINPNEWWKVYPSSVTEFKFLFVSGHFKGNYKAQLTRLNHITNCNGAVLSVEELLIGGEMIKAGTLTLEEVRRKFNNGEINF
For the protein B1, the binding result is on record as “binds”.

These data come from article PMC3367207 (Nucleic Acids Research, 2012).
